Target: hPCSK9 (Sino Biologicals, China) (human) (UniProt Q8NBP7)
Experiment: cell-based or functional assay

Substance: Alirocumab (antibody)
- hepatic LDL-R expression, Percentage of baseline (%), mouse hPCSK9 challenge, inhibitor 22 nmol/kg: 157%
